Each substance was assayed against human C4b (human) (UniProt P0C0L5) (assay: cell-based or functional assay).
human C4b (human), sequence (P0C0L5 20-1744): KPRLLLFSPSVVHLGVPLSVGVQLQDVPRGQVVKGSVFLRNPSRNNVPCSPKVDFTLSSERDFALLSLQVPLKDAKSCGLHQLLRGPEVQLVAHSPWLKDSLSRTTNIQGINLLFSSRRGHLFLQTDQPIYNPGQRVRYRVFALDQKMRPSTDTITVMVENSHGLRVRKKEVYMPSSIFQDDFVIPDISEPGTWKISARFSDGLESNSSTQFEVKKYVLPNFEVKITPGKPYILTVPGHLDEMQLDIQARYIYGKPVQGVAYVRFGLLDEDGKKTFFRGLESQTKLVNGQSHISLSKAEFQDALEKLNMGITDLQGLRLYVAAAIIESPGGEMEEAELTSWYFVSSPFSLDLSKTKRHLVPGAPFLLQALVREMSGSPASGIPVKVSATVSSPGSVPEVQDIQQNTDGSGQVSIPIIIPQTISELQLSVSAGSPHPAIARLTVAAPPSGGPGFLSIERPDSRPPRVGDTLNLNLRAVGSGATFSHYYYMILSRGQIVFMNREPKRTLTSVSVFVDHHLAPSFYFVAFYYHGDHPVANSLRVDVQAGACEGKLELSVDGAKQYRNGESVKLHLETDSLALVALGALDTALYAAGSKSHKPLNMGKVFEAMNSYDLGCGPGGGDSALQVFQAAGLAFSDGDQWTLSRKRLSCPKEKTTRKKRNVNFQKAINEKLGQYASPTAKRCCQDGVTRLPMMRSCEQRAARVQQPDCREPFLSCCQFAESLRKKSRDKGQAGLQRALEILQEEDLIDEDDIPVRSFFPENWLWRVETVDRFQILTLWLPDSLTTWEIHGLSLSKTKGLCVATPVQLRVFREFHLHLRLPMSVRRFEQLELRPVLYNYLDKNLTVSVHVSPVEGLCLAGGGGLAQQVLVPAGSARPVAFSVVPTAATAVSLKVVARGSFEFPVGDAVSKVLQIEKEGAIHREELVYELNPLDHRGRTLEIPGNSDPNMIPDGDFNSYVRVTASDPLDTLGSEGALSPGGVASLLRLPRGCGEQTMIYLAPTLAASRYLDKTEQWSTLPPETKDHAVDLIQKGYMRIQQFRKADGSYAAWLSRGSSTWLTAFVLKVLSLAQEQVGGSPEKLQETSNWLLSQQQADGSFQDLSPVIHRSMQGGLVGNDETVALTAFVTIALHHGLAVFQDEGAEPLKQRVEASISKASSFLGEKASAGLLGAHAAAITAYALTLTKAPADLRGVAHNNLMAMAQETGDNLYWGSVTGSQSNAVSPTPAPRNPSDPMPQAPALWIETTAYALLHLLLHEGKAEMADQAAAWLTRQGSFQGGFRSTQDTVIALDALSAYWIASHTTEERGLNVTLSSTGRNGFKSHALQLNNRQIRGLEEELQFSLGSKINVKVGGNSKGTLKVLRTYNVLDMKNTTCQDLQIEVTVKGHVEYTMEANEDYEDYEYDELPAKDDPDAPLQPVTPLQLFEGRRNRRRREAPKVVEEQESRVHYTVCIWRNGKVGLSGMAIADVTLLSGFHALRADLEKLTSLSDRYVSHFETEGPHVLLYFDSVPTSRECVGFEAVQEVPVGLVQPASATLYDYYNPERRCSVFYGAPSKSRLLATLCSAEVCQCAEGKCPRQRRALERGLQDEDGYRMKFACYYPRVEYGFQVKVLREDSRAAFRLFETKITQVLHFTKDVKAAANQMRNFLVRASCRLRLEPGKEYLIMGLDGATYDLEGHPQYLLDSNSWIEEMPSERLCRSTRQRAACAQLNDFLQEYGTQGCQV
Const. No. 66: HSA-GGSSGG-hCFI-GGSSGG-hCR1; CCP8; CCP9; CCP10-(SEQ ID NO: 33)-hFH; CCP19; CCP20, sequence (P17927 other isoform, or with tags, fused parts or gaps limits assumed): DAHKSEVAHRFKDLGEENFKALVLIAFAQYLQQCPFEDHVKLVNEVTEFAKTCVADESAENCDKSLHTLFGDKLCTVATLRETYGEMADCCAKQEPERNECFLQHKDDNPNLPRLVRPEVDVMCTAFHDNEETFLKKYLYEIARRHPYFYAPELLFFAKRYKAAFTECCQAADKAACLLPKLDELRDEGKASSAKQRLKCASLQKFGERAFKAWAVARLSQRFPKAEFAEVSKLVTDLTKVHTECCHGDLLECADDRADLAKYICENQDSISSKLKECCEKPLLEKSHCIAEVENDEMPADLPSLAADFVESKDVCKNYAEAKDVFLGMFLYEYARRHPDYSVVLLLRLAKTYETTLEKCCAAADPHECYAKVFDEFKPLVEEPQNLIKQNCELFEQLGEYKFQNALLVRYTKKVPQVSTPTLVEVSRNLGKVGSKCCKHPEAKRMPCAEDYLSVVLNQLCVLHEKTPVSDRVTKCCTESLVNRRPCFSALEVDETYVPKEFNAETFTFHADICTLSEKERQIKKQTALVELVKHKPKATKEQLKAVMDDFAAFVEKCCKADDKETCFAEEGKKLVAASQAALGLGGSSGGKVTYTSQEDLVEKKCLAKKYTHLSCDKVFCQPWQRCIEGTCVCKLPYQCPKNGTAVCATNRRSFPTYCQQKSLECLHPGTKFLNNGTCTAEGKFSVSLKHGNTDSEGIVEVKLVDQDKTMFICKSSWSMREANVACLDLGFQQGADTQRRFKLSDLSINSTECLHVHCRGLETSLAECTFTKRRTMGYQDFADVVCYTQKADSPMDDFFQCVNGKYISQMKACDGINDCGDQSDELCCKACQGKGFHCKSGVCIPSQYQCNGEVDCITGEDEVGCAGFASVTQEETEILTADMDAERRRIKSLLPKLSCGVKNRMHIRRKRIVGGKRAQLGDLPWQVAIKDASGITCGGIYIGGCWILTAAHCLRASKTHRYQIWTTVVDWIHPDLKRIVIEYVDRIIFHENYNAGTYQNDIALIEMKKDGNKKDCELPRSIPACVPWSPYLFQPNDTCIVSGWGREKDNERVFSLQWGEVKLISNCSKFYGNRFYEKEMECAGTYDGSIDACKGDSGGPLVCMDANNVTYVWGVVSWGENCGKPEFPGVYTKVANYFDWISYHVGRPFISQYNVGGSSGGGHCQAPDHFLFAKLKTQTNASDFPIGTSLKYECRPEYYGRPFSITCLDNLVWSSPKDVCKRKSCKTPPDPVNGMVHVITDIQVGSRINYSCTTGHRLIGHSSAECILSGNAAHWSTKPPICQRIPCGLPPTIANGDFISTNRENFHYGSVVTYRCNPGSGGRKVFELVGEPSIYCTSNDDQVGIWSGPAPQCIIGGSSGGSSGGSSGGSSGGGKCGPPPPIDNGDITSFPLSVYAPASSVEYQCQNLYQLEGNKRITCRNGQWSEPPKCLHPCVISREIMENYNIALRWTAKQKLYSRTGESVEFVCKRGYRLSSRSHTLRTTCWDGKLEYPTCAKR
For “Const. No. 71: HSA-…-Gorilla CFI (enzyme)”, the C4c EC50 was 0.679 µM. Const. No. 73: HSA-…-Chimp CFI (enzyme) gave a C4c EC50 of 1.61 µM. Substance “Const. No. 74: HSA-…-Bovine CFI (enzyme)” has a C4c EC50 of 0.0471 µM.

The substances below were run against soluble human C3b (human) (UniProt P01024) (assay: cell-based or functional assay).
soluble human C3b (human), sequence (P01024 23-1663 limits assumed): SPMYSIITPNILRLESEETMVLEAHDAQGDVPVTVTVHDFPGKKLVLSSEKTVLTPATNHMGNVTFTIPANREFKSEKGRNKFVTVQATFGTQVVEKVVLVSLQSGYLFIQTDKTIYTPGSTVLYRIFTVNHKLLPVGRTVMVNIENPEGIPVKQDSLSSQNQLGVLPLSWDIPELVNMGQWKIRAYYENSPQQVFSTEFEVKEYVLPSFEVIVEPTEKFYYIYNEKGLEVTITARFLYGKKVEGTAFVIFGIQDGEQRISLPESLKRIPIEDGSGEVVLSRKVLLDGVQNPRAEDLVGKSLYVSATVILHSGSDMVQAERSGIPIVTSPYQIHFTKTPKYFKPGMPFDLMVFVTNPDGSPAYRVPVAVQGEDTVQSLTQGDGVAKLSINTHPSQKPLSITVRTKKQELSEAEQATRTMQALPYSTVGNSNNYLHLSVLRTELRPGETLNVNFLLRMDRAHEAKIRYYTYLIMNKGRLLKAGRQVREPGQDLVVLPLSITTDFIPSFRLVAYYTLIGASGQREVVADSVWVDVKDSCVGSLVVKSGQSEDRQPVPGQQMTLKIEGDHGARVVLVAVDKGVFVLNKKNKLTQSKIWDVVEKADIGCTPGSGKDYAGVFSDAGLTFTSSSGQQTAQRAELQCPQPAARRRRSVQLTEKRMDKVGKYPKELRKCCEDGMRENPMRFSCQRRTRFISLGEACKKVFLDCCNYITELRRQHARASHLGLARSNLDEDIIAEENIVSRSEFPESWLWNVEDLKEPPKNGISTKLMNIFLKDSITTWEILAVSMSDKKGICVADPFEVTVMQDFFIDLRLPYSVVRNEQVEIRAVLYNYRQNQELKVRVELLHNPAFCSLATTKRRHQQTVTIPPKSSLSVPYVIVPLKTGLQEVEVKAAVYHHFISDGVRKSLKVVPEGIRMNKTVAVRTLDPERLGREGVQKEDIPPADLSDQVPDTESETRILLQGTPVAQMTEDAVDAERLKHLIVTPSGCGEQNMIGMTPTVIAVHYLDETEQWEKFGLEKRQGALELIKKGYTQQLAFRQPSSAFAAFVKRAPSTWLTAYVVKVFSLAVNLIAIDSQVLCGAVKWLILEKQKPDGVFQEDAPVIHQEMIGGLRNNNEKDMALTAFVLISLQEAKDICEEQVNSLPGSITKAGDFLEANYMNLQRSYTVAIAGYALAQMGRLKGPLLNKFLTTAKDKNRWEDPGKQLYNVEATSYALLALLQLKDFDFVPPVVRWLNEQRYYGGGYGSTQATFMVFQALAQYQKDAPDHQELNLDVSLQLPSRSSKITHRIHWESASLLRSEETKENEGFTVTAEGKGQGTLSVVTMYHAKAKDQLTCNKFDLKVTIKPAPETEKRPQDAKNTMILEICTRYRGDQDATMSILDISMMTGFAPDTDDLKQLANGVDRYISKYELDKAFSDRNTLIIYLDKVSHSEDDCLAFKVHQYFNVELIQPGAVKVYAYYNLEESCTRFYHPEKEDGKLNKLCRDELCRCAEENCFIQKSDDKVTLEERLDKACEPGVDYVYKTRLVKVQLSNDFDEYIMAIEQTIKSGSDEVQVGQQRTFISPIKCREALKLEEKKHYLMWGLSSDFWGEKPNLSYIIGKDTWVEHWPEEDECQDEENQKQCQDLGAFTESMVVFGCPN
“Const. No. 2: HSA-GGSSGG-hCFI; F559H (enzyme)” showed an iC3b EC50 of 0.0286 µM. For “Const. No. 3: HSA-GGSSGG-hCFI; L307F (enzyme)”, the iC3b EC50 was 0.0189 µM. “Const. No. 4: HSA-GGSSGG-hCFI; L307H (enzyme)” showed an iC3b EC50 of 0.0214 µM. Substance “Const. No. 5: HSA-GGSSGG-hCFI; L307W (enzyme)” has an iC3b EC50 of 0.0248 µM. “Const. No. 6: HSA-GGSSGG-hCFI; L307Y (enzyme)” gave an iC3b EC50 of 0.0347 µM. Substance “Const. No. 7: HSA-GGSSGG-hCFI; P433A (enzyme)” has an iC3b EC50 of 0.0158 µM. “Const. No. 14: HSA-GGSSGG-hCFI; S499A (enzyme)” gave an iC3b EC50 of 0.0409 µM. “Const. No. 15: HSA-GGSSGG-hCFI; S499K (enzyme)” was tested, and the iC3b EC50 was 0.0351 µM. “Const. No. 16: HSA-GGSSGG-hCFI; S499V (enzyme)” showed an iC3b EC50 of 0.0856 µM. For “Const. No. 21: HSA-GGSSGG-hCFI; K423R (enzyme)”, the iC3b EC50 was 0.0305 µM. With “Const. No. 22: HSA-GGSSGG-hCFI; R62A (enzyme)” the iC3b EC50 was 0.102 µM. In the case of “Const. No. 23: HSA-GGSSGG-hCFI; R62E (enzyme)”, the iC3b EC50 is reported as 0.156 µM. Substance “Const. No. 26: HSA-GGSSGG-hCFI; E401K (enzyme)” has an iC3b EC50 of 0.00639 µM. For “Const. No. 27: HSA-GGSSGG-hCFI; E401R (enzyme)”, the iC3b EC50 was 0.00626 µM. Work on “Const. No. 28: HSA-GGSSGG-hCFI; E401A (enzyme)” yielded an iC3b EC50 of 0.0118 µM. With “Const. No. 29: HSA-GGSSGG-hCFI; E401F (enzyme)” the iC3b EC50 was 0.0106 µM. Work on “Const. No. 33: HSA-GGSSGG-hCFI; H554F (enzyme)” yielded an iC3b EC50 of 0.0164 µM. “Const. No. 34: HSA-GGSSGG-hCFI; H554K (enzyme)” gave an iC3b EC50 of 0.0087 µM. Substance “Const. No. 35: HSA-GGSSGG-hCFI; R371E (enzyme)” has an iC3b EC50 of 0.347 µM. Substance “Const. No. 36: HSA-GGSSGG-hCFI; A342R (enzyme)” has an iC3b EC50 of 0.0131 µM. For “Const. No. 37: HSA-GGSSGG-hCFI; K51R; N52A; A55P; T59M; R61G; F64Y (enzyme)”, the iC3b EC50 was 0.0203 µM. Substance “Const. No. 38: HSA-GGSSGG-hCFI; N52A (enzyme)” has an iC3b EC50 of 0.0398 µM. Work on “Const. No. 39: HSA-GGSSGG-hCFI; A55P (enzyme)” yielded an iC3b EC50 of 0.0314 µM. “Const. No. 40: HSA-GGSSGG-hCFI; T59E (enzyme)” was tested, and the iC3b EC50 was 0.0432 µM. Substance “Const. No. 41: HSA-GGSSGG-hCFI; L73F (enzyme)” has an iC3b EC50 of 0.0314 µM. In the case of “Const. No. 42: HSA-GGSSGG-hCFI; L73D (enzyme)”, the iC3b EC50 is reported as 0.168 µM. For “Const. No. 45: HSA-GGSSGG-hCFI; R484A (enzyme)”, the iC3b EC50 was 0.0611 µM. For “Const. No. 47: HSA-GGSSGG-hCFI; R484E (enzyme)”, the iC3b EC50 was 0.154 µM. “Const. No. 48: HSA-GGSSGG-hCFI; Δ(V565) > VG (enzyme)” showed an iC3b EC50 of 1 µM. “Const. No. 49: HSA-GGSSGG-hCFI; Δ(V565) > VY (enzyme)” gave an iC3b EC50 of 0.0892 µM. With “Const. No. 50: HSA-GGSSGG-hCFI; E416K (enzyme)” the iC3b EC50 was 0.0128 µM. In the case of “Const. No. 51: HSA-GGSSGG-hCFI; E416R (enzyme)”, the iC3b EC50 is reported as 0.0125 µM. Substance “Const. No. 52: HSA-GGSSGG-hCFI; D395A (enzyme)” has an iC3b EC50 of 0.0225 µM. Substance “Const. No. 53: HSA-GGSSGG-hCFI; D395G (enzyme)” has an iC3b EC50 of 0.0207 µM. “Const. No. 54: HSA-GGSSGG-hCFI; D395K (enzyme)” showed an iC3b EC50 of 0.00738 µM. Work on “Const. No. 55: HSA-GGSSGG-hCFI; D395R (enzyme)” yielded an iC3b EC50 of 0.0124 µM. In the case of “Const. No. 56: HSA-GGSSGG-hCFI; D395A; D425A (enzyme)”, the iC3b EC50 is reported as 0.00967 µM. In the case of “Const. No. 57: HSA-GGSSGG-hCFI; D395A; E416A (enzyme)”, the iC3b EC50 is reported as 0.0175 µM. “Const. No. 58: HSA-GGSSGG-hCFI; D395A; E416A; D425A (enzyme)” was tested, and the iC3b EC50 was 0.00815 µM. “Const. No. 59: HSA-GGSSGG-hCFI; N402D (enzyme)” was tested, and the iC3b EC50 was 0.0249 µM. For “Const. No. 60: HSA-GGSSGG-hCFI; K368D (enzyme)”, the iC3b EC50 was 0.156 µM. “Const. No. 66: HSA-GGSSGG-hCFI-GGSSGG-hCR1; CCP8; CCP9; CCP10-(SEQ ID NO: 33)-hFH; CCP19; CCP20 (from UniProt P17927 491-684; P08603 1107-1231) (enzyme)” was tested, and the iC3b EC50 was 0.00317 µM, the iC3b no cofactor EC50 was 0.00292 µM and the iC3b with cofactor EC50 was 0.0032 µM. Substance “Const. No. 70: HSA-…-Rat CFI (from UniProt Q9WUW3 19-604) (enzyme)” has an iC3b EC50 of 0.0175 µM. Substance “Const. No. 71: HSA-…-Gorilla CFI (enzyme)” has an iC3b EC50 of 0.0327 µM. “Const. No. 72: HSA-…-Cyno CFI (from UniProt A0A650AXN4 19-583) (enzyme)” gave an iC3b EC50 of 0.00312 µM. Const. No. 73: HSA-…-Chimp CFI (enzyme) showed an iC3b EC50 of 0.0546 µM. “Const. No. 74: HSA-…-Bovine CFI (enzyme)” gave an iC3b EC50 of 0.00579 µM. Substance “Const. No. 91: HSA-GGSSGG-hCFI; T377A; E457G; N531G (enzyme)” has an iC3b EC50 of 0.00669 µM. With “Const. No. 92: HSA-GGSSGG-hCFI; N422A (enzyme)” the iC3b EC50 was 0.0463 µM. With “Const. No. 95: HSA linked with CFI (CFI-HSA), wild type (enzyme)” the iC3b EC50 was 0.0286 µM.
